One test deals with T1, recombinant Fc alone (human, UniProt P01857-1 99-330 = IgG part, limits assumed).
T1 construct: domain: Fc portion
Description: FACS on T-cells (ligand on activated T-cells later identified as SD-4).

Test [1] deals with T2, DC-HIL-Fc RAA mutant (replacement of RGD sequence with RAA) (mouse; human, UniProt Q99P91 23-502).
T2 construct: extracellular domain; Positions 65 and 66 are derived from the printed position of RGD (aa 64-66); not shown: Fc of human IgG1
T2 sequence (looked up): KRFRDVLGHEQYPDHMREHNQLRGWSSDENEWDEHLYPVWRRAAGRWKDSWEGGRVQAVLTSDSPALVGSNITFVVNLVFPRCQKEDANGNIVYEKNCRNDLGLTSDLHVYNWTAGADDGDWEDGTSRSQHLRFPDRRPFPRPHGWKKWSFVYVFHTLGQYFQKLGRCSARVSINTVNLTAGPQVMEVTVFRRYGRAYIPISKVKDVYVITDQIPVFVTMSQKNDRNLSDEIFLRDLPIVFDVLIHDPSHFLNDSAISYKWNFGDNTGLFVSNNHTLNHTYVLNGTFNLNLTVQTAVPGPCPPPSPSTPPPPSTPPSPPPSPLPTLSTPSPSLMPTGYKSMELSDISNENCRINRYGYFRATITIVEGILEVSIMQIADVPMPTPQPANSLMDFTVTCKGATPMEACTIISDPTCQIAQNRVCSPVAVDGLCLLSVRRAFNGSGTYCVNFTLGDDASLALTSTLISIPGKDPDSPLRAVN
Description: FACS, 10 µg/mL on activated CD4+ T-cells (ligand later identified as SD-4). As for the experimental part: Splenic CD3⁺ T-cells (1×10⁶) were activated by immobilized anti-CD3 Ab (1 or 3 μg/mL) or concanavalin A (10 μg/mL; Sigma, St Louis, Mo.) for 3 days. Freshly isolated and activated CD3⁺ T-cells were then treated with 5 μg/mL Fc blocker (BD Pharmingen, San Diego, Calif.) on ice for 30 minutes to block Fc-binding activity of Fc receptors on T-cells and incubated with 5 μg/mL PE-anti-CD3 Ab (BD Pharmingen) and 10 μg/mL DC-HIL-Fc or control human IgG (hIgG) plus 5 μg/mL FITC-anti-human IgG (both from Jackson ImmunoResearch, West Grove, Pa.). In some experiments, activated and Fc-blocked CD3⁺ T-cells were doubly-stained with 5 μg/mL FITC-labeled anti-CD4 or anti-CD8 Ab (BD Pharmingen) and Fc proteins/PE-anti-human IgG (BD Pharmingen). The treated cells were also stained with anti-CD69 Ab or isotypic control IgG to evaluate activation levels. After staining, binding of Fc proteins to T-cells and expression of marker molecules were analyzed by fluorescence-activated cell sorting (FACS).
(In general: Flow cytometry measures light scatter and fluorescence of single cells or particles in a stream.)

Test [2] addresses T3, DC-HIL, mouse, endogenous on APC / dendritic cells (mouse, UniProt Q99P91 23-574).
T3 sequence (looked up): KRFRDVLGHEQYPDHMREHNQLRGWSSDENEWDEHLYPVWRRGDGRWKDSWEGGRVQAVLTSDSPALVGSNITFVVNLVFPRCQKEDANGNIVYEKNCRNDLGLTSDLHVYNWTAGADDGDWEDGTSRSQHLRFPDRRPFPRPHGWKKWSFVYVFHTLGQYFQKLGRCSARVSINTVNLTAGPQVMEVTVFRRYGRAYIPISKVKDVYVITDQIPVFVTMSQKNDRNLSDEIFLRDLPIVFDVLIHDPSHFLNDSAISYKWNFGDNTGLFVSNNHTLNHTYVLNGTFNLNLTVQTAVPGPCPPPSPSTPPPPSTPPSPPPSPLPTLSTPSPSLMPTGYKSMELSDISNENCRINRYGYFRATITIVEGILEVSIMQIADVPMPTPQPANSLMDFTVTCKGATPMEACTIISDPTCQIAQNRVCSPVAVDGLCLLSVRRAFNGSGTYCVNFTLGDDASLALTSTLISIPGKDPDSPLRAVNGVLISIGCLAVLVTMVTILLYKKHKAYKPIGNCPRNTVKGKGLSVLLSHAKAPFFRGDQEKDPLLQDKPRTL
Description: cell-based or functional assay.

B1: syndecan-4 (SD-4), mouse, endogenous on T-cells (receptor, UniProt O35988 24-198, looked up)
chain: ESIRETEVIDPQDLLEGRYFSGALPDDEDAGGSDDFELSGSGDLDDTEEPRPFPEVIEPLVPLDNHIPENAQPGIRVPSEPKELEENEVIPKRAPSDVGDDMSNKVSMSSTAQGSNIFERTEVLAALIVGGVVGILFAVFLILLLVYRMKKKDEGSYDLGKKPIYKKAPTNEFYA
modifications: heparin/heparan sulfate chains (binding of DC-HIL is blocked by heparin)
notes: whole, on cells
For the molecule B1, the binding result in the test with recombinant Fc alone is “no binding”; in test [1], “binds”.

B2: SD4-Fc (extracellular domain of SD-4 fused to the Fc portion of human IgG1) (Fc fusion, UniProt O35988 24-145, looked up, not shown: a dimerising Fc or GST)
chain: ESIRETEVIDPQDLLEGRYFSGALPDDEDAGGSDDFELSGSGDLDDTEEPRPFPEVIEPLVPLDNHIPENAQPGIRVPSEPKELEENEVIPKRAPSDVGDDMSNKVSMSSTAQGSNIFERTE
Take B2: the “T-cell activation in the mixed lymphocyte reaction (3H-thymidine)” value in test [2] amounted to 2 fold.

(Values after patent publication US20090297479A1 (published 2009).)
